T1: human CD79B on the surface of cells (DoHH2 / DOHH-2, WSU-DLCL2) (human, UniProt P40259 29-229)
T1 sequence (looked up): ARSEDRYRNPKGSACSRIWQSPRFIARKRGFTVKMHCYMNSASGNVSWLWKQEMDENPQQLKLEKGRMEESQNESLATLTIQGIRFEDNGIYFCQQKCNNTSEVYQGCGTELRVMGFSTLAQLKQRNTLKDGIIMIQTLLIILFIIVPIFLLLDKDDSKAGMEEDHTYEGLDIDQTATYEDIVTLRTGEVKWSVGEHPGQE

T2: fusion protein of human CD79B extracellular domain (ECD) and His tag (human, UniProt P40259 29-159)
T2 construct: also called human CD79B ECD-His; Human CD79B-His protein
T2 sequence: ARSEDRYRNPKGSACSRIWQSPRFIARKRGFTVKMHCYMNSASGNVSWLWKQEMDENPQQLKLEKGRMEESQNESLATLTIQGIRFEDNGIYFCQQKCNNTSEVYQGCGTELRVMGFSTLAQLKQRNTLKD

T3: human CD79B antigen (coated in the ELISA of the anti-human CD79B mouse antibodies) (human, UniProt P40259 29-159)
T3 construct: extracellular domain; The ELISA protocols only say 'antigen'
T3 sequence (looked up): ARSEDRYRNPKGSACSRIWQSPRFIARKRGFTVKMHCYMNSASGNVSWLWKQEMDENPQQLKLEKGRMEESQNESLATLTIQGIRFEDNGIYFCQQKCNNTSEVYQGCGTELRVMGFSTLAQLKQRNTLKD


Key:
[1] = target: T1, human CD79B on the surface of cells …; test: cell-based or functional assay
[2] = target: T1, human CD79B on the surface of cells …; test: cell-based or functional assay; remark: listed apart in the source
[3] = target: T1, human CD79B on the surface of cells …; test: FACS on DoHH2 cells
[4] = target: T2, fusion protein of human CD79B …; test: ELISA on Human CD79B-His protein
[5] = target: T2, fusion protein of human CD79B …; test: SPR, Human CD79B-His protein
[6] = target: T1, human CD79B on the surface of cells …; test: FACS on DoHH2 cells; remark: listed apart in the source
Procedure: 3) Assay on anti-human CD79B mouse monoclonal antibodies by FACS The cell suspension of DoHH2 cells was centrifuged, resuspended in PBS containing 0.1% BSA, and counted. 100 μL of antibody diluted in a 1:10 ratio from 100 nM was added, and the cells were incubated at room temperature for 1 h and washed three times. Then Anti-Mouse IgG (Fc specific)-FITC secondary antibody was added, and the cells were incubated at room temperature for 30 min away from the light, washed three times, gently resuspended in PBS containing 0.1% BSA, and loaded on the machine for assay.

[7] = target: T3, human CD79B antigen (coated in the …); test: ELISA on coated human CD79B antigen
Procedure: 2) Assay on anti-human CD79B mouse monoclonal antibodies by ELISA A 96-well plate was coated with 1 μg/mL antigen at 50 μL/well and incubated in a refrigerator at 4° C. overnight. The next day, the coated antigen plate was washed once (washing solution: 1× PBST). After washing, the plate was blocked with 1% BSA blocking solution prepared in 1× PBST at 37° C. for 1 h. After washing the plate 3 times with 1× PBST, 50 μL of antibody diluted in a 1:10 ratio from 100 nM was added, and the plate was incubated in an incubator at 37° C. for 1 h. After washing the plate 3 times with 1× PBST, 100 μL of goat anti-mouse secondary antibody diluted in a 1:5000 ratio was added, and the plate was incubated in an incubator at 37° C. for 0.5 h. After washing the plate, TMB color development solutions A and B were mixed in a 1:1 ratio for color development. 15 min later, the color development reaction was stopped with 1 N hydrochloric acid. […] value was read at 450 nm on a Spectra Max M5 microplate reader.

Row | Binder | Endocytosis rate (4 h), DoHH2 cells [1] | IC50 of in vitro proliferation, DoHH2 cells (MTT, 72 h) [2] | IC50 of in vitro proliferation, WSU-DLCL2 cells (MTT, 72 h) [2] | EC50 (read off the curve) [6] | further results
1 | ADC-7 (antibody, human IgG1, kappa, V domains shown, compound D coupled to cysteines after TCEP reduction; positions not given; compound D (exatecan-type linker-drug, Topo I inhibitor) coupled to cysteines after TCEP reduction; positions not given; mean n=5.84 per antibody) VH: EVQLVQSGAEVKKPGSSVKVSCKASGSSFSSYGINWVKQAPGQGLEWIGEIFPRSGNTYYNEKFEGRATLTADKSTSTAYMELRSLRSEDTAVYYCAKGDLGDFDYWGQGTTVTVSS VL: DFVMTQTPLSLPVTPGEPASISCRSSQSIVHSDGNTYFEWYLQKPGQSPKLLIYKVSNRFSGVPDRFSGSGSGTDFTLKISRVEAEDVGVYYCFQGSHVPWTFGGGTKVEIKR | 68% | 0.002 µg/mL | 0.0534 µg/mL |  | 
2 | ADC-4 (antibody, human IgG1, kappa, V domains shown, compound C coupled to cysteines after TCEP reduction; positions not given; compound C (linker-drug) coupled to cysteines after TCEP reduction; positions not given; mean n=4.52 per antibody, Antibody-drug conjugate of hAb015-10; DAR 4.52; also called hAb015-10-cys-C) VH: EVQLVQSGAEVKKPGSSVKVSCKASGSSFSSYGINWVKQAPGQGLEWIGEIFPRSGNTYYNEKFEGRATLTADKSTSTAYMELRSLRSEDTAVYYCAKGDLGDFDYWGQGTTVTVSS VL: DFVMTQTPLSLPVTPGEPASISCRSSQSIVHSDGNTYFEWYLQKPGQSPKLLIYKVSNRFSGVPDRFSGSGSGTDFTLKISRVEAEDVGVYYCFQGSHVPWTFGGGTKVEIKR | 81% |  |  |  | 
3 | hAb017-10 (antibody, human IgG1, kappa, V domains shown, Humanized antibody; also called hAb017-10 humanized antibody) VH: EVQLVQSGAEVKKPGASVKVSCKASGYTFTTYGINWVKQAPGQGLEWIGEIYPRSGNIYYNEKFKGKATLTADKSTSTAYMELRSLRSDDTAVYYCARGSDYDGDFAYWGQGTLVTVSS VL: DVVMTQTPLSLPVTPGEPASISCRSSQSIVHHDGNTYLEWYLQKPGQSPQLLIYKVSNRFSGVPDRFSGSGSGTDFTLKISRVEAEDVGVYYCFQGSHVPWTFGGGTKVEIKR |  |  |  |  | EC50 [3]: 550 pM; EC50 [4]: 60 pM; Kd [5]: 4300 pM
4 | ADC-1 (antibody, human IgG1, kappa, V domains shown, compound B coupled to cysteines after TCEP reduction; positions not given; compound B (eribulin-derivative linker-drug) coupled to cysteines after TCEP reduction; positions not given; mean n=3.06 per antibody, Antibody-drug conjugate of hAb015-10; DAR 3.06; also called hAb015-10-cys-B) VH: EVQLVQSGAEVKKPGSSVKVSCKASGSSFSSYGINWVKQAPGQGLEWIGEIFPRSGNTYYNEKFEGRATLTADKSTSTAYMELRSLRSEDTAVYYCAKGDLGDFDYWGQGTTVTVSS VL: DFVMTQTPLSLPVTPGEPASISCRSSQSIVHSDGNTYFEWYLQKPGQSPKLLIYKVSNRFSGVPDRFSGSGSGTDFTLKISRVEAEDVGVYYCFQGSHVPWTFGGGTKVEIKR | 73% |  |  |  | 
5 | ADC-3 (antibody, human IgG1, kappa, V domains shown, MC-vc-PAB-MMAE coupled to cysteines after TCEP reduction; positions not given; MC-vc-PAB-MMAE coupled to cysteines after TCEP reduction; positions not given; mean n=3.09 per antibody, Antibody-drug conjugate of hAb015-10; DAR 3.09; also called hAb015-10-cys-MC-vc-PAB-MMAE) VH: EVQLVQSGAEVKKPGSSVKVSCKASGSSFSSYGINWVKQAPGQGLEWIGEIFPRSGNTYYNEKFEGRATLTADKSTSTAYMELRSLRSEDTAVYYCAKGDLGDFDYWGQGTTVTVSS VL: DFVMTQTPLSLPVTPGEPASISCRSSQSIVHSDGNTYFEWYLQKPGQSPKLLIYKVSNRFSGVPDRFSGSGSGTDFTLKISRVEAEDVGVYYCFQGSHVPWTFGGGTKVEIKR | 70% | 0.0033 µg/mL | 0.0059 µg/mL |  | 
6 | ADC-2 (antibody, human IgG1, kappa, V domains shown, compound A coupled to cysteines after TCEP reduction; positions not given; compound A (Malei-PEG2-vc-PAB-MMAE) coupled to cysteines after TCEP reduction; positions not given; mean n=3.68 per antibody, Antibody-drug conjugate of hAb015-10; DAR 3.68; also called hAb015-10-cys-Malei-PEG2-vc-PAB-MMAE) VH: EVQLVQSGAEVKKPGSSVKVSCKASGSSFSSYGINWVKQAPGQGLEWIGEIFPRSGNTYYNEKFEGRATLTADKSTSTAYMELRSLRSEDTAVYYCAKGDLGDFDYWGQGTTVTVSS VL: DFVMTQTPLSLPVTPGEPASISCRSSQSIVHSDGNTYFEWYLQKPGQSPKLLIYKVSNRFSGVPDRFSGSGSGTDFTLKISRVEAEDVGVYYCFQGSHVPWTFGGGTKVEIKR | 66% |  |  |  | 
7 | ADC-8 (antibody, human IgG1, kappa, V domains shown, MC-VC-PAB-MMAE coupled to cysteines after TCEP reduction; positions not given; MC-VC-PAB-MMAE coupled to cysteines after TCEP reduction; positions not given; mean n=3.59 per antibody) VH: EVQLVESGGGLVQPGGSLRLSCAASGYTFSSYWIEWVRQAPGKGLEWIGEILPGGGDTNYNEIFKGRATFSADTSKNTAYLQMNSLRAEDTAVYYCTRRVPIRLDYWGQGTLVTVSS VL: DIQLTQSPSSLSASVGDRVTITCKASQSVDYEGDSFLNWYQQKPGKAPKLLIYAASNLESGVPSRFSGSGSGTDFTLTISSLQPEDFATYYCQQSNEDPLTFGQGTKVEIKR | 76% | 0.0806 µg/mL | 0.117 µg/mL |  | 
8 | SN8 (antibody, human IgG1, kappa, V domains shown, also called positive control antibody; the antibody in Polivy (polatuzumab vedotin)) VH: EVQLVESGGGLVQPGGSLRLSCAASGYTFSSYWIEWVRQAPGKGLEWIGEILPGGGDTNYNEIFKGRATFSADTSKNTAYLQMNSLRAEDTAVYYCTRRVPIRLDYWGQGTLVTVSS VL: DIQLTQSPSSLSASVGDRVTITCKASQSVDYEGDSFLNWYQQKPGKAPKLLIYAASNLESGVPSRFSGSGSGTDFTLTISSLQPEDFATYYCQQSNEDPLTFGQGTKVEIKR |  |  |  | ~0.09 µg/mL | 

Continued, in another order:

Row | Endocytosis rate (4 h), DoHH2 cells [1] | IC50 of in vitro proliferation, DoHH2 cells (MTT, 72 h) [2] | IC50 of in vitro proliferation, WSU-DLCL2 cells (MTT, 72 h) [2] | EC50 (read off the curve) [6] | Binder | further results
9 | 76% | 0.0085 µg/mL | 0.0683 µg/mL |  | ADC-5 (antibody, human IgG1, kappa, V domains shown, compound D coupled to cysteines after TCEP reduction; positions not given; compound D (exatecan-type linker-drug, Topo I inhibitor) coupled to cysteines after TCEP reduction; positions not given; mean n=1.81 per antibody, Antibody-drug conjugate of hAb015-10; also called HAB015-10-cys-D, with a DAR value of about 2) VH: EVQLVQSGAEVKKPGSSVKVSCKASGSSFSSYGINWVKQAPGQGLEWIGEIFPRSGNTYYNEKFEGRATLTADKSTSTAYMELRSLRSEDTAVYYCAKGDLGDFDYWGQGTTVTVSS VL: DFVMTQTPLSLPVTPGEPASISCRSSQSIVHSDGNTYFEWYLQKPGQSPKLLIYKVSNRFSGVPDRFSGSGSGTDFTLKISRVEAEDVGVYYCFQGSHVPWTFGGGTKVEIKR | 
10 | 75% | 0.0033 µg/mL | 0.0542 µg/mL |  | ADC-6 (antibody, human IgG1, kappa, V domains shown, compound D coupled to cysteines after TCEP reduction; positions not given; compound D (exatecan-type linker-drug, Topo I inhibitor) coupled to cysteines after TCEP reduction; positions not given; mean n=3.46 per antibody) VH: EVQLVQSGAEVKKPGSSVKVSCKASGSSFSSYGINWVKQAPGQGLEWIGEIFPRSGNTYYNEKFEGRATLTADKSTSTAYMELRSLRSEDTAVYYCAKGDLGDFDYWGQGTTVTVSS VL: DFVMTQTPLSLPVTPGEPASISCRSSQSIVHSDGNTYFEWYLQKPGQSPKLLIYKVSNRFSGVPDRFSGSGSGTDFTLKISRVEAEDVGVYYCFQGSHVPWTFGGGTKVEIKR | 
11 |  |  |  | ~0.03 µg/mL | mAb015 (antibody, V domains shown, Mouse monoclonal antibody from hybridoma; also called 83B2G2) VH: QVQLQQSGAELARPGASVKLSCKASGSSFTSYGINWVKQRTGQGLEWIGEIFPRSGNTYYNEKFEGKATLTADKSSSTAYMELRSLTSEDSAVYFCAKGDLGDFDYWGQGTTLTVSS VL: DFLMTQTPLSLPVRLGDQASISCRSSQSIVHSDGNTYFEWYLQKPGQSPKLLIYKVSNRFSGVPDRFSGSGSGTDFTLKISRVEAEDLGVYYCFQGSHVPWTFGGGTKLEIK | EC50 (read off the curve) [7]: 100 to 200 pM
12 |  |  |  | ~0.02 µg/mL | mAb017 (antibody, V domains shown, Mouse monoclonal antibody from hybridoma; also called 86F11F6) VH: QVQLQQSGAELARPGASVKLSCKASGYTFTTYGINWVKQRTGQGLEWIGEIYPRSGNIYYNEKFKGKATLTADKSSSTAYMELRSLTSEDSAVYFCARGSDYDGDFAYWGQGTLVTVSA VL: DVLMTQTPLSLPVSLGDQASISCRSSQSIVHHDGNTYLEWYLQKPGQSPKLLIYKVSNRFSGVPDRFSGSGSGTDFTLKISRVEAEDLGVYYCFQGSHVPWTFGGGTQLEIK | EC50 (read off the curve) [7]: 100 to 200 pM
13 |  |  |  | ~0.02 µg/mL | mAb016 (antibody, V domains shown) VH: QVQLQQSGAELARPGASVKLSCKASGYIFTNYGIIWVKQRTGQGLEWIGDIFPGSGNTYYNENFKGKATLTADKSSSTAYMELRSLTSEDSAVYFCSRGELGDFDYWGQGTTLTVSS VL: VVLMTQTPLSLPVSLGDQASISCRSSQNIVHSDGTTYLEWYLQKPGQSPKLLIYKVSNRFSGVPDRFSGSGSGTDFTLKISRVEAEDLGIYYCFQGSHVPWTFGGGTKLEIK | EC50 (read off the curve) [7]: 100 to 200 pM

Source: patent US20260248946A1 (TUOJIE BIOTECH SHANGHAI, published 2026)
